Assay results: patent US20250213684A1, “COMBINATION THERAPIES COMPRISING ANTIBODY MOLECULES TO TIM-3” (Novartis AG, priority 2015, published 2025)

Key:
huTIM-3/his (human) [1] = target: huTIM-3/his (human) (UniProt Q8TDQ0); assay: Biacore, 1st antibody injection on hTIM-3/his captured by anti-His antibody
huTIM-3/his (human) [2] = target: huTIM-3/his (human) (UniProt Q8TDQ0); assay: Biacore, 2nd antibody injection; 1st antibody (competitor) huIgG1
huTIM-3/his (human) [3] = target: huTIM-3/his (human) (UniProt Q8TDQ0); assay: Biacore, 2nd antibody injection; 1st antibody (competitor) ABTIM3-hum11
huTIM-3/his (human) [4] = target: huTIM-3/his (human) (UniProt Q8TDQ0); assay: Biacore, 2nd antibody injection; 1st antibody (competitor) ABTIM3-hum03
huTIM-3/his (human) [5] = target: huTIM-3/his (human) (UniProt Q8TDQ0); assay: Biacore, 2nd antibody injection; 1st antibody (competitor) ABTIM3-hum21

human IgG1 isotype control (antibody)
change in RU (huTIM-3/his (human) [1]): 0.27 RU
change in RU (huTIM-3/his (human) [2]): 3.6 RU
change in RU (huTIM-3/his (human) [3]): 3.8 RU
change in RU (huTIM-3/his (human) [4]): 4.5 RU
change in RU (huTIM-3/his (human) [5]): 4.5 RU
